Tests used:
[1] = biological target: WT JR-FL gp120 (HIV-1 (isolate JR-FL)); assay: ELISA on coated gp120; EC50 by nonlinear regression
[2] = biological target: JR-FL gp120 ΔV1/ΔV2 (HIV-1 (isolate JR-FL)); assay: as above
[3] = biological target: HIV-1 JR-CSF Env N386A (HIV-1 isolate JR-CSF) (UniProt P20871); assay: cell-based or functional assay
[4] = biological target: HIV-1 JR-CSF Env N301A (HIV-1 JR-CSF) (UniProt P20871); assay: cell-based or functional assay
[5] = biological target: HIV-1 JR-CSF Env S334A (HIV-1 isolate JR-CSF) (UniProt P20871); assay: cell-based or functional assay
[6] = biological target: Env of the clade F HIV-1 pseudoviruses of the cross-clade 162-pseudovirus panel (n = 15); assay: cell-based or functional assay
[7] = biological target: Env of the clade D HIV-1 pseudoviruses of the cross-clade 162-pseudovirus panel (n = 25); assay: cell-based or functional assay
[8] = biological target: HIV-1 JR-CSF Env T297A (HIV-1 JR-CSF) (UniProt P20871); assay: cell-based or functional assay
[9] = biological target: Env of the clade G HIV-1 pseudoviruses of the cross-clade 162-pseudovirus panel (n = 15); assay: cell-based or functional assay
[10] = biological target: HIV-1 JR-CSF Env H330A (HIV-1 isolate JR-CSF) (UniProt P20871); assay: cell-based or functional assay
[11] = biological target: HIV-1 JR-CSF Env S393A (HIV-1 (isolate JR-CSF)) (UniProt P20871); assay: cell-based or functional assay
[12] = biological target: HIV-1 JR-CSF Env T341A (HIV-1 isolate JR-CSF) (UniProt P20871); assay: cell-based or functional assay
[13] = biological target: HIV-1 JR-CSF Env I420A (HIV-1 (isolate JR-CSF)) (UniProt P20871); assay: cell-based or functional assay
[14] = biological target: HIV-1 JR-CSF Env T394A (HIV-1 (isolate JR-CSF)) (UniProt P20871); assay: cell-based or functional assay
[15] = biological target: HIV-1 JR-CSF Env R315A (HIV-1 isolate JR-CSF) (UniProt P20871); assay: cell-based or functional assay
[16] = biological target: HIV-1 JR-CSF Env N295A (HIV-1 JR-CSF) (UniProt P20871); assay: cell-based or functional assay
[17] = biological target: HIV-1 JR-CSF Env S199A (HIV-1 JR-CSF) (UniProt P20871); assay: cell-based or functional assay
[18] = biological target: HIV-1 JR-CSF Env R350A (HIV-1 isolate JR-CSF) (UniProt P20871); assay: cell-based or functional assay
[19] = biological target: HIV-1 JR-CSF Env R419A (HIV-1 (isolate JR-CSF)) (UniProt P20871); assay: cell-based or functional assay
[20] = biological target: HIV-1 JR-CSF Env T320A (HIV-1 isolate JR-CSF) (UniProt P20871); assay: cell-based or functional assay
[21] = biological target: HIV-1 Env of isolate MGRM-C-026 (HIV-1); assay: cell-based or functional assay
[22] = biological target: HIV-1 JR-CSF Env I307A (HIV-1 JR-CSF) (UniProt P20871); assay: cell-based or functional assay
[23] = biological target: HIV-1 JR-CSF Env N276A (HIV-1 JR-CSF) (UniProt P20871); assay: cell-based or functional assay
[24] = biological target: HIV-1 Env of isolate JR-CSF (HIV-1) (UniProt P20871); assay: cell-based or functional assay
[25] = biological target: HIV-1 JR-CSF Env N262A (HIV-1 JR-CSF) (UniProt P20871); assay: cell-based or functional assay
[26] = biological target: HIV-1 JR-CSF Env N411A (HIV-1 (isolate JR-CSF)) (UniProt P20871); assay: cell-based or functional assay
[27] = biological target: HIV-1 JR-CSF Env T303A (HIV-1 JR-CSF) (UniProt P20871); assay: cell-based or functional assay
[28] = biological target: HIV-1 Env of isolate 92TH021 (HIV-1); assay: cell-based or functional assay
[29] = biological target: HIV-1 JR-CSF Env D325A (HIV-1 isolate JR-CSF) (UniProt P20871); assay: cell-based or functional assay
[30] = biological target: HIV-1 JR-CSF Env I309A (HIV-1 JR-CSF) (UniProt P20871); assay: cell-based or functional assay
[31] = biological target: Env of the clade A HIV-1 pseudoviruses of the cross-clade 162-pseudovirus panel (n = 26); assay: cell-based or functional assay
[32] = biological target: HIV-1 JR-CSF Env N339A (HIV-1 isolate JR-CSF) (UniProt P20871); assay: cell-based or functional assay
[33] = biological target: HIV-1 JR-CSF Env K343A (HIV-1 isolate JR-CSF) (UniProt P20871); assay: cell-based or functional assay
[34] = biological target: HIV-1 JR-CSF Env F210A (HIV-1 JR-CSF) (UniProt P20871); assay: cell-based or functional assay
[35] = biological target: HIV-1 JR-CSF Env E321aA (HIV-1 isolate JR-CSF) (UniProt P20871); assay: cell-based or functional assay
[36] = biological target: HIV-1 JR-CSF Env P313A (HIV-1 JR-CSF) (UniProt P20871); assay: cell-based or functional assay
[37] = biological target: Env of the clade C HIV-1 pseudoviruses of the cross-clade 162-pseudovirus panel (n = 27); assay: cell-based or functional assay
[38] = biological target: HIV-1 JR-CSF Env F317A (HIV-1 isolate JR-CSF) (UniProt P20871); assay: cell-based or functional assay
[39] = biological target: HIV-1 JR-CSF Env T388A (HIV-1 (isolate JR-CSF)) (UniProt P20871); assay: cell-based or functional assay

B1: PGT-123 (antibody, V domains shown)
VH: QLHLQESGPGLVKPPETLSLTCSVSGASINDAYWSWIRQSPGKRPEWVGYVHHSGDTNYNPSLKRRVTFSLDTAKNEVSLKLVDLTAADSATYFCARALHGKRIYGIVALGELFTYFYMDVWGKGTAVTVSS
VL: SSMSVSPGETAKISCGKESIGSRAVQWYQQKPGQPPSLIIYNNQDRPAGVPERFSASPDFRPGTTATLTITNVDAEDEADYYCHIYDARGGTNWVFDRGTTLTVL
- EC50 [1]: 0.2 µg/mL
- EC50 [2]: 0.3 µg/mL
- Fold IC50 increase relative to wild-type [3]: 1.4 fold
- Fold IC50 increase relative to wild-type [4]: 1 fold
- Fold IC50 increase relative to wild-type [5]: > 50 fold
- Median IC50 against viruses neutralized with an IC50 <50 µg/ml [6]: 0.09 µg/mL
- Median IC50 against viruses neutralized with an IC50 <50 µg/ml [7]: 0.02 µg/mL
- Fold IC50 increase relative to wild-type [8]: 0.3 fold
- Median IC50 against viruses neutralized with an IC50 <50 µg/ml [9]: 0.04 µg/mL
- Fold IC50 increase relative to wild-type [10]: 0.3 fold
- Fold IC50 increase relative to wild-type [11]: 0.6 fold
- Fold IC50 increase relative to wild-type [12]: 0.3 fold
- Fold IC50 increase relative to wild-type [13]: 3.2 fold
- Fold IC50 increase relative to wild-type [14]: 0.4 fold
- Fold IC50 increase relative to wild-type [15]: 0.7 fold
- Fold IC50 increase relative to wild-type [16]: 1.2 fold
- Fold IC50 increase relative to wild-type [17]: 1.1 fold
- Fold IC50 increase relative to wild-type [18]: 0.5 fold
- Fold IC50 increase relative to wild-type [19]: 0.7 fold
- Fold IC50 increase relative to wild-type [20]: 0.7 fold
- Primary Neutralization Index (B cell culture well 4858 P8) [21]: 33.8
- Fold IC50 increase relative to wild-type [22]: 5.9 fold
- Fold IC50 increase relative to wild-type [23]: 1.1 fold
- Primary Neutralization Index (B cell culture well 4858 P8) [24]: 1.6
- Fold IC50 increase relative to wild-type [25]: 0.5 fold
- Fold IC50 increase relative to wild-type [26]: 0.5 fold
- Fold IC50 increase relative to wild-type [27]: 1.1 fold
- IC50 (µg/mL), pseudovirus neutralization [28]: > 50 µg/mL
- Fold IC50 increase relative to wild-type [29]: 64 fold
- Fold IC50 increase relative to wild-type [30]: 1.6 fold
- Median IC50 against viruses neutralized with an IC50 <50 µg/ml [31]: 0.02 µg/mL
- Fold IC50 increase relative to wild-type [32]: 0.8 fold
- Fold IC50 increase relative to wild-type [33]: 0.3 fold
- Fold IC50 increase relative to wild-type [34]: 2.8 fold
- Fold IC50 increase relative to wild-type [35]: 0.6 fold
- Fold IC50 increase relative to wild-type [36]: 0.2 fold
- Median IC50 against viruses neutralized with an IC50 <50 µg/ml [37]: 0.01 µg/mL
- Fold IC50 increase relative to wild-type [38]: 3.1 fold
- Fold IC50 increase relative to wild-type [39]: 0.2 fold
